Assay results: the Immune Epitope Database (IEDB)
pIC50, pKd: −log10 of the molar value.

How the values were obtained:
HLA-C*15:02 = test: IEDB peptide-MHC binding, purified MHC/direct/fluorescence; filed as Kd, often an IC50 or EC50 that approximates it; ≥ and ≤ were set here for values at or beyond the usual limits of such assays
HLA-B*57:01 [1] = test: as above
HLA-B*15:17 = test: as above
HLA-A*02:01 [2] = test: IEDB peptide-MHC binding, purified MHC/competitive/fluorescence; ≥ and ≤ were set here for values at or beyond the usual limits of such assays
HLA-A*11:01 [3] = test: as above
HLA-A*03:01 [4] = test: as above
HLA-B*58:01 = test: IEDB peptide-MHC binding, purified MHC/direct/fluorescence; filed as Kd, often an IC50 or EC50 that approximates it; ≥ and ≤ were set here for values at or beyond the usual limits of such assays
HLA-B*40:01 = test: as above; settings: source organism: Escherichia coli O157:H7
HLA-A*02:01 [5] = test: as above; settings: source organism: Escherichia coli O157:H7
HLA-B*27:05 = test: as above; settings: source organism: Escherichia coli O157:H7
HLA-A*01:01 = test: as above; settings: source organism: Escherichia coli O157:H7
HLA-A*11:01 [6] = test: as above; settings: source organism: Escherichia coli O157:H7
HLA-B*07:02 = test: as above; settings: source organism: Escherichia coli O157:H7
HLA-A*68:02 [7] = test: as above; settings: source organism: Escherichia coli O157:H7
HLA-B*18:01 [8] = test: as above; settings: source organism: Escherichia coli O157:H7
HLA-B*46:01 [9] = test: as above; settings: source organism: Escherichia coli O157:H7
HLA-B*15:01 [10] = test: as above
HLA-A*03:01 [11] = test: as above; settings: source organism: Escherichia coli O157:H7
HLA-A*31:01 = test: as above; settings: source organism: Escherichia coli O157:H7
HLA-B*48:01 = test: as above; settings: source organism: Escherichia coli O157:H7
HLA-A*02:02 = test: IEDB peptide-MHC binding, purified MHC/competitive/radioactivity; filed as Kd, often an IC50 or EC50 that approximates it; ≥ and ≤ were set here for values at or beyond the usual limits of such assays; settings: source organism: Human immunodeficiency virus type 1 (CLONE 12)
HLA-A*02:01 [12] = test: IEDB peptide-MHC binding, purified MHC/competitive/fluorescence; filed as Kd, often an IC50 or EC50 that approximates it; ≥ and ≤ were set here for values at or beyond the usual limits of such assays
HLA-A*02:19 = test: as above
HLA-A*69:01 [13] = test: as above
HLA-A*02:11 [14] = test: as above
HLA-A*02:12 = test: as above
HLA-B*39:01 = test: as above
HLA-A*02:16 = test: as above
HLA-B*57:01 [15] = test: as above
HLA-A*02:03 = test: as above
HLA-A*68:02 [16] = test: as above
HLA-B*27:03 = test: as above
HLA-A*26:01 = test: as above
HLA-B*46:01 [17] = test: as above
HLA-B*15:01 [18] = test: as above
HLA-A*03:01 [19] = test: as above
HLA-A*69:01 [20] = test: IEDB peptide-MHC binding, purified MHC/direct/fluorescence; filed as Kd, often an IC50 or EC50 that approximates it; ≥ and ≤ were set here for values at or beyond the usual limits of such assays; settings: source organism: Mycobacterium tuberculosis
HLA-A*02:11 [21] = test: as above; settings: source organism: Mycobacterium tuberculosis str. Haarlem
HLA-B*15:01 [22] = test: IEDB peptide-MHC binding, purified MHC/competitive/fluorescence; ≥ and ≤ were set here for values at or beyond the usual limits of such assays
HLA-A*24:03 = test: IEDB peptide-MHC binding, purified MHC/competitive/fluorescence; filed as Kd, often an IC50 or EC50 that approximates it; ≥ and ≤ were set here for values at or beyond the usual limits of such assays; settings: source organism: Listeria monocytogenes serotype 4b str. H7858
HLA-B*18:01 [23] = test: as above; settings: source organism: Listeria monocytogenes serotype 4b str. H7858
HLA-B*51:01 = test: as above; settings: source organism: Listeria monocytogenes serotype 4b str. H7858
[24] = source organism: dengue virus type 3
[25] = source organism: Zaire ebolavirus
[26] = source organism: Vaccinia virus WR
[27] = source organism: Yersinia pestis
[28] = source organism: Escherichia coli O157:H7
[29] = source organism: Human immunodeficiency virus 1
[30] = source organism: Vibrio vulnificus YJ016
[31] = source organism: Sudan ebolavirus
[32] = source organism: Listeria monocytogenes serotype 4b str. H7858

Sequence: KIFLHFSIL
- pKd (HLA-C*15:02; source organism: Rickettsia sibirica 246): 6.04

Sequence: ICSAVPVHW
- pKd (HLA-B*57:01 [1]; [24]): 6.38
- pKd (HLA-B*15:17; [24]): 6.43

Sequence: VVFSTSDGK
- pIC50 (HLA-A*02:01 [2]; [25]): ≤ 3.41
- pIC50 (HLA-A*11:01 [3]; [25]): 5.99
- pIC50 (HLA-A*03:01 [4]; [25]): 5.34

Sequence: QGYSHGDIK
- pIC50 (HLA-A*11:01 [3]; [26]): 5.75
- pIC50 (HLA-A*03:01 [4]; [26]): 4.92

Sequence: MAMPEYWQF
- pKd (HLA-B*57:01 [1]; [27]): 7.63
- pKd (HLA-C*15:02; source organism: Yersinia pestis Nepal516): ≤ 4.70
- pKd (HLA-B*15:17; [27]): 8.06
- pKd (HLA-B*58:01; [27]): 8.77

Sequence: WLSVIAFGK
- pKd (HLA-B*57:01 [1]; [28]): ≤ 4.70
- pKd (HLA-B*40:01): ≤ 4.70
- pKd (HLA-A*02:01 [5]): ≤ 4.70
- pKd (HLA-B*27:05): ≤ 4.70
- pKd (HLA-A*01:01): ≤ 4.70
- pKd (HLA-A*11:01 [6]): 5.65
- pKd (HLA-B*07:02): ≤ 4.70
- pKd (HLA-A*68:02 [7]): ≤ 4.70
- pKd (HLA-B*15:17; [28]): ≤ 4.70
- pKd (HLA-B*18:01 [8]): ≤ 4.70
- pKd (HLA-B*46:01 [9]): ≤ 4.70
- pKd (HLA-B*15:01 [10]; [28]): ≤ 4.70
- pKd (HLA-A*03:01 [11]): 5.79
- pKd (HLA-A*31:01): ≤ 4.70
- pKd (HLA-B*48:01): ≤ 4.70
- pKd (HLA-B*58:01; [28]): ≤ 4.70

Sequence: AIIRILQQL
- pKd (HLA-A*02:02): 6.43
- pKd (HLA-A*02:01 [12]; [29]): 8.32
- pKd (HLA-A*02:19; [29]): 6.94
- pKd (HLA-A*69:01 [13]; [29]): 6.24
- pKd (HLA-A*02:11 [14]; [29]): 9.68
- pKd (HLA-A*02:12; [29]): 7.96
- pKd (HLA-B*39:01; [29]): ≤ 4.70
- pKd (HLA-A*02:16; [29]): 8.82

Sequence: TIYTSGKRS
- pIC50 (HLA-A*03:01 [4]; [25]): 4.43

Sequence: IALPVAWLF
- pKd (HLA-B*57:01 [15]; [30]): 7.20
- pKd (HLA-A*02:01 [12]; [30]): ≤ 4.70
- pKd (HLA-A*02:03; [30]): ≤ 4.70
- pKd (HLA-A*02:19; [30]): ≤ 4.70
- pKd (HLA-A*68:02 [16]; [30]): ≤ 4.70
- pKd (HLA-A*02:12; [30]): ≤ 4.70
- pKd (HLA-B*27:03; [30]): ≤ 4.70
- pKd (HLA-A*26:01; [30]): ≤ 4.70
- pKd (HLA-B*46:01 [17]; [30]): ≤ 4.70
- pKd (HLA-B*15:01 [18]; [30]): ≤ 4.70
- pKd (HLA-B*39:01; [30]): ≤ 4.70
- pKd (HLA-A*03:01 [19]; [30]): ≤ 4.70
- pKd (HLA-A*02:16; [30]): ≤ 4.70

Sequence: TVADVRHCL
- pKd (HLA-C*15:02; source organism: Vaccinia virus Copenhagen): 6.31

Sequence: RMWEFLDRL
- pKd (HLA-A*69:01 [20]): 5.66
- pKd (HLA-A*02:11 [21]): ≥ 9.00

Sequence: MQISTIGIR
- pIC50 (HLA-A*02:01 [2]; [31]): ≤ 3.93
- pIC50 (HLA-A*11:01 [3]; [31]): 5.59
- pIC50 (HLA-B*15:01 [22]; [31]): 4.58
- pIC50 (HLA-A*03:01 [4]; [31]): ≤ 3.84

Sequence: KMIDGIGRF
- pKd (HLA-C*15:02; source organism: Influenza A virus (A/81/HO)): ≤ 4.70
- pKd (HLA-B*15:01 [10]; source organism: H1N1 swine influenza virus (A/swine/Korea/S10/2004(H1N1))): 6.71

Sequence: GLYEFTILV
- pKd (HLA-C*15:02; source organism: Mycobacterium tuberculosis C): ≤ 4.70

Sequence: ILNTIQFMH
- pIC50 (HLA-A*02:01 [2]; [26]): 5.29
- pIC50 (HLA-A*11:01 [3]; [26]): 5.57
- pIC50 (HLA-B*15:01 [22]; [26]): ≤ 3.95
- pIC50 (HLA-A*03:01 [4]; [26]): 5.47

Sequence: ITAASLPKT
- pIC50 (HLA-A*02:01 [2]; [25]): 5.31
- pIC50 (HLA-A*11:01 [3]; [25]): 5.54
- pIC50 (HLA-A*03:01 [4]; [25]): 4.52

Sequence: ITWPRTRHW
- pKd (HLA-B*57:01 [15]; [32]): 7.48
- pKd (HLA-A*02:01 [12]; [32]): ≤ 4.70
- pKd (HLA-A*02:03; [32]): ≤ 4.70
- pKd (HLA-A*02:19; [32]): ≤ 4.70
- pKd (HLA-A*24:03): ≤ 4.70
- pKd (HLA-A*69:01 [13]; [32]): ≤ 4.70
- pKd (HLA-A*68:02 [16]; [32]): ≤ 4.70
- pKd (HLA-A*02:11 [14]; [32]): ≤ 4.70
- pKd (HLA-A*02:12; [32]): ≤ 4.70
- pKd (HLA-B*27:03; [32]): ≤ 4.70
- pKd (HLA-B*18:01 [23]): ≤ 4.70
- pKd (HLA-A*26:01; [32]): ≤ 4.70
- pKd (HLA-B*51:01): ≤ 4.70
- pKd (HLA-B*46:01 [17]; [32]): ≤ 4.70
- pKd (HLA-B*15:01 [18]; [32]): ≤ 4.70
- pKd (HLA-B*39:01; [32]): ≤ 4.70
- pKd (HLA-A*03:01 [19]; [32]): ≤ 4.70
- pKd (HLA-A*02:16; [32]): ≤ 4.70
